Numbering of substitutions follows the chain as printed.
Key:
[1] = target: HA head of A/Florida/904/2000 (H1N1) (Influenza A virus A/Florida/904/2000 …, UniProt Q91R26, strain); test: BLI
[2] = target: T1, HA head domain of A/Texas/50/2012 (H3N2) (Influenza A virus A/Texas/50/2012 (H3N2), strain); test: BLI
[3] = target: T1, HA head domain of A/Texas/50/2012 (H3N2); test: crystal structure

B1: K03.1-12 lineage unmutated common ancestor (UCA) Fab (tag removed, for binding studies) (Fab, V domains shown)
VH: not shown
VL: QSALTQPASVSGSPGQSITISCTGTSSDVGSYNLVSWYQQHPGKAPKLMIYEGSKRPSGVSNRFSGSKSGNTASLTISGLQAEDEADYYCCSYAGSVVFGGGTKLTVL
B1: binds [1]; binds [2].

B2: I-11 Fab (inferred evolutionary intermediate of the K03.1-12 lineage) (Fab, V domains shown)
VH: not shown
VL: B1 VL with I18V
B2: binds [1]; binds [2].

B3: K03.12 Fab (tag removed, for binding studies) (Fab, V domains shown)
VH: EVQLVQSGAEVKKPGASVKVSCKTSGYTFTAYYLHWVRQAPGQGFEWMAWINPNTGDTNYAQKFQGRVTLSRDTSITTAYMELTRLRSDDTAVYYCAKDLTLMYVFDSGWARGAHDYYGMDVWGQGTTVAVSG
VL: PSALTQPASVSGSPGQSVTISCTGTNSDVGTFDLVSWYQQYPGKAPKLIIYEGSRRPSGVSDRFSGSKSGNTASLTISGLQAEDEADYYCSSYAGSVVFGGGTKLTVL
B3: binds [1]; binds [2].

B4: K03.12 Fab for crystallization (noncleavable 6xHis tag) (Fab, V domains shown)
VH: B3 VH
VL: B3 VL
B4: binds [3].
